Where “and” joins values, the source holds several entries; their conditions need not be identical. Identical values can stand only once.

The results in this text go back to patent publication US20100004162A1 (ROCKEFELLER UNIVERSITY, published 2010).

In experiment [1] the target is chicken α4β2 nicotinic acetylcholine receptor expressed in Xenopus oocytes (chicken) (UniProt P09482). Put plainly: cell-based or functional assay.
Experiment [2] concerns the target T1, nAChR alpha 7 subunit (chick alpha 7 construct) expressed in 293T cells (chick, UniProt P22770 24-502).
T1 construct: It was in the extract of transfected 293T cells, separated by SDS-PAGE and probed by Far Western
The experiment can be described thus: Far Western blot of extracts of transfected 293T cells. From the text:
Far Western Analysis. A fragment of the Lynx1 cDNA corresponding to the mature polypeptide was cloned in frame to the C-terminus of the coding sequence for the secreted human placental alkaline phosphatase (referred to as Lynx/AP). The APtag-4 vector was provided by Dr. John Flanagan (Cheng, H.-J. et al (1995) Cell 82, 371-381). Constructs were transfected into 293T cells using calcium phosphate precipitation. Conditioned media was collected and treated as described (Cheng, H.-J. et al (1995) Cell 82, 371-381): 20 μg of crude extract was electrophoretically separated and transferred to PVDF membrane (Immobilon P, Millipore). Filters were renatured as specified (Rodriguez, P. L. & Carrasco, L. (1994) Biotech. 17, 702-707), incubated overnight with equal amounts of cultured supernatants containing lynx/AP or unfused AP, washed, and treated with NBT/BCIP substrate according to manufacturer's directions (Pharmacia). To determine the relative activity of Lynx/AP protein compared to unfused AP, a dilution series of cultured supernatants was blotted onto nitrocellulose paper with a slot blot apparatus and reacted for AP activity.
The cells were harvested and lysed and cell extract was run out on an SDS-PAGE gel. […]

Chain of chicken α4β2 nicotinic acetylcholine receptor expressed in Xenopus oocytes (chicken) (P09482 24-622, chain 1 of 2): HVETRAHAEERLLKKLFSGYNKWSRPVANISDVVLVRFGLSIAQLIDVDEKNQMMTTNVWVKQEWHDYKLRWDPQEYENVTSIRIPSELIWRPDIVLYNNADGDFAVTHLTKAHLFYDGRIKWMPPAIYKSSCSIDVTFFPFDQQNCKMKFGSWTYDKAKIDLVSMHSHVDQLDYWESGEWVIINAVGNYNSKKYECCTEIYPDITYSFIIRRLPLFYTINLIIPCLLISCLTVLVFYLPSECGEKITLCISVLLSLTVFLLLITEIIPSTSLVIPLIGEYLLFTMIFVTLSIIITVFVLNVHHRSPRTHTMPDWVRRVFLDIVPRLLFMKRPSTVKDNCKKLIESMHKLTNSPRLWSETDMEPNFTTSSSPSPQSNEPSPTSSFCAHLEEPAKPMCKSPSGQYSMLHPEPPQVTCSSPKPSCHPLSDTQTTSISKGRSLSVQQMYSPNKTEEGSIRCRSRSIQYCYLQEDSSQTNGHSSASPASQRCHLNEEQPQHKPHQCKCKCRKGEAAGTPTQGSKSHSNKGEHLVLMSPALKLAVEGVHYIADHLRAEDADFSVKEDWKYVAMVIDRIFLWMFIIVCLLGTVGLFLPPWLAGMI
Chain of chicken α4β2 nicotinic acetylcholine receptor expressed in Xenopus oocytes (chicken) (P09484 19-491, chain 2 of 2, further chain): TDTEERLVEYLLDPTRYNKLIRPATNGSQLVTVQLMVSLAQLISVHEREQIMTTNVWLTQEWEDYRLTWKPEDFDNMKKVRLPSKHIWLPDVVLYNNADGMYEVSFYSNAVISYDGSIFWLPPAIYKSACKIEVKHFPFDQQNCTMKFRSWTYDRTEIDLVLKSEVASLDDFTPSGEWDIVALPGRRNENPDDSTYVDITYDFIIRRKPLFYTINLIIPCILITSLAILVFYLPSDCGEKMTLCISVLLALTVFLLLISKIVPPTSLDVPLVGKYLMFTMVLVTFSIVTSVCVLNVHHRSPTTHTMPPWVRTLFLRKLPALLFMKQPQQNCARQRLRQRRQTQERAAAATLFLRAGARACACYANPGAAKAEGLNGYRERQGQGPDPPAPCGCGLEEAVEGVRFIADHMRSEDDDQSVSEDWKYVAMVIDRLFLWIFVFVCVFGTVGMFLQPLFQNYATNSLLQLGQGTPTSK
T1 sequence (P22770 24-502): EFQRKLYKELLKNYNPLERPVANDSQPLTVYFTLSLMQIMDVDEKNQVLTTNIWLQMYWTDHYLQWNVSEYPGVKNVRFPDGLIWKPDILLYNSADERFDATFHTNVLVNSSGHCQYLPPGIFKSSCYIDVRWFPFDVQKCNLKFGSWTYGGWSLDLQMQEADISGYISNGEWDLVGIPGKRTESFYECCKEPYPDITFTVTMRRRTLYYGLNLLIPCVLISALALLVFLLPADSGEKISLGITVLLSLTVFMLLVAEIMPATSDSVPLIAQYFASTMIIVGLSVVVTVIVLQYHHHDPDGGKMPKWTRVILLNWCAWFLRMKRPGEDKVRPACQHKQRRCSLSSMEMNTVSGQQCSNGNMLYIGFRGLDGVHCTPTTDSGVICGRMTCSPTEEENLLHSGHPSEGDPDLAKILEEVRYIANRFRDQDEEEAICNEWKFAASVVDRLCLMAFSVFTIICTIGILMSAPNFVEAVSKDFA

As for “Lynx1-HA (CMV2611), column purified Lynx1 (from UniProt P0DP60 21-92) (ligand)”, the amplitude of the ACh-evoked macroscopic currents in experiment [1] is 30% to 40% (2×) and 35%.

B1: Lynx/AP fusion protein (other)
chain: LECHVCAYNGDNCFKPMRCPAMATYCMTTRTYFTPYRMKVRKSCVPSCFETVYDGYSKHASATSCCQYYLCN
notes: It was used as conditioned medium of transfected 293T cells; also called Lynx1-alkaline phosphatase (AP) fusion; Lynx/AP supernatant; not shown: secreted human placental alkaline phosphatase from the APtag-4 vector
Take B1: the binding result in experiment [2] is “binds”.
